In the DeepSol protein solubility set:

Assay: soluble on expression in E. coli; label from the status in PepcDB or PDB records

Sequence | soluble on expression in E. coli
MGSDKIHHHHHHMVIIHSKDLVNWTIKGHVVSDLRQISEEMNWTRMNRYGRGIWAGAIRYYQGKFYVYFGTPDEGYFMSTATDPAGPWEPLHCVKAEKGWDDCCPFFDDDGQLYFVGTHFADKYKTYLYRMTPDGKTLIENSKILINEGYGREASKLYKINGTYYHFFSEVKNGGRYIMMQRSSSITGPYLERKQLSHVQREYNEPNQGGLVEGPDRKWYFFTHHGTGDWAGRIASLLPVYWVDGWPIIGEVGQDGIGTMVWQAAKPSNEYPVRTPQSSDDFSKSVLSPQWEWNYQPRDEMWSLTERPGNLRLKAFRPLVTDNLLKAGNTLTQRCFRTNKNEVIVKMNIEGMVDGQKAGLCHYSKSYAMVGVRQSGKDRNLEFQTNKEKITGPAIKGNKVWIKSVWGLDGKSQFSYSTDGRKFTPFGEVYQLEWGYYRGSRIGIYCFNNIADAGYIDVDEFIYLY | not soluble
MLIHMKSRKMNLNKLEDGGSWFSRLKQFLQGEPQNQEELVSLLRDAQIRSLINSETLAMIEGAILFSKMRVRDIMLPKNQMVCINKDDDFKHIISIVTQTGHSRFPVTGENSDEVVGILHAKDLLKYQPENMESFDLLDICRQVTFVPESRRLDSLLSEFRSNRNHMAIVVDEYGEVSGFVTIEDIIEQIIGDIEDEFDIDEDAYIKTHEGHCYIIKAHTPIEEFNEQLNADFSDETYDTIGGIVLNKFGYLPQRGEVIIIDDFEFKVLNADSRRIKLLECLDKRSPEKLNSTVEG | not soluble
MANEVIKCKAAVAWEAGKPLSIEEIEVAPPKAHEVRIKIIATAVCHTDAYTLSGADPEGCFPVILGHEGAGIVESVGEGVTKLKAGDTVIPLYIPQCGECKFCLNPKTNLCQKIRVTQGKGLMPDGTSRFTCKGKTILHYMGTSTFSEYTVVADISVAKIDPLAPLDKVCLLGCGISTGYGAAVNTAKLEPGSVCAVFGLGGVGLAVIMGCKVAGASRIIGVDINKDKFARAKEFGATECINPQDFSKPIQEVLIEMTDGGVDYSFECIGNVKVMRAALEACHKGWGVSVVVGVAASGEEIATRPFQLVTGRTWKGTAFGGWKSVESVPKLVSEYMSKKIKVDEFVTHNLSFDEINKAFELMHSGKSIRTVVKI | soluble
MNKDQSKIPQATAKRLPLYYRFLKNLHASGKQRVSSAELSDAVKVDSATIRRDFSYFGALGKKGYGYNVDYLLSFFRKTLDQDEMTDVILIGVGNLGTAFLHYNFTKNNNTKISMAFDINESKIGTEVGGVPVYNLDDLEQHVKDESVAILTVPAVAAQSITDRLVALGIKGILNFTPARLNVPEHIRIHHIDLAVELQSLVYFLKHYSVLEEIE | soluble
MQNLRTDVLIIGGGEAGLVAGCRALTMGQKVILVEKNGYLGGATILNGSNVVGTGSDVAAQIFDNNHDTPEMLAQDVARESLETNYPALTDLMVHNIGPAIDFISKFADLHYQKAQTQTPEHSINRQIELPSASSYEFIQKVSKAFAAAGGQIMLDTRVEKLMLDNDKKLRGVIAAQKDQTVNIKARSVVLAAGGHGANQKMRGTESEGIDYYGPMTSTGDAYQFNGDLDLQTHDLGWYKLYPHGVEVEPGVAKLTTYASKQATDMGAIYVNSKGDRIVNESNVYTTFRNAILKQADKVAYLVMDERTWKKVYDLLILHDFTPEEIKSFFENKGKRPVFVKGSLESAAEQAGIVVDELVQTVKNYQGYVQDGHDHDFGRDPKYLHQFEGETFYIIEQRDRFATTLGGYSVDADNLQLVTTKNAPVANYFGAGEIIGGANGHDSMPSMMNTWGISSGYVAGAAASENAQRQATAGAAALEHHHHHH | soluble
MGSSHHHHHHSSGRENLYFQGSPVEKYNFKAEVNKVMDIIVNSLYTDKDVFLRELISNASDACDKKRIILENNKLIKDAEVVTNEEIKNETEKEKTENVNESTDKKENVEEEKNDIKKLIIKIKPDKEKKTLTITDNGIGMDKSELINNLGTIAQSGTAKFLKQIEEGKADSNLIGQFGVGFYSSFLVSNRVEVYTKKEDQIYRWSSDLKGSFSVNEIKKYDQEYDDIKGSGTKIILHLKEECDEYLEDYKLKELIKKYSEFIKFPIEIWSE | soluble
MGSDKIHHHHHHMSQAPYFVPRAPYAEDPSKSKGRRFKEDESRTRTPFARDRDRIIHTSAFRRLKEKTQVFVAHEGDNFRTRLTHTLEVAQVARSLATALGLDADLAETIALAHDLGHPPFGHAGEDELEIQMREYGGFDHNVQTFRVVTELEHRYPDFIGLNLTWETLEGVIKHNGPVTNKLGKPSWKAISKYDNEYELGLGTWASAEAQVAALADDIAYNNHDVDDGVTAGLFTLDDLMDVPLIGPILAAVKSERPDLDARLTHLEAVRRMIGAMVDDVMGETLHRAAASGVQSADDVRALDHALVAFSSDMAEDLARLRGFLYERMYRHWRVNRTRSQARRILGEMFALFLREPEVLPTVWFAKSQNRDEAGRARVVCDYIAGMTDRFAIEEHRKLFHLDVWN | not soluble
MGSDKIHHHHHHMKFSINRQKTIEIIGEYSNILKDNPVKPSLAGLFIQAKNNQVVFKGANTEIELIRYANCEIESEGQVLIKPALLLEYIKLLEGENINFEKKDGYLIVNNAEFSILDDNTYPELTEIIPIVIASENTVKFTMSLEKVKFLTNSSASTDTLFNSIKMIFKDNVLELVSTDSFRLIYMKKELNNMINKDVLVPGDSIAVLYKIFKDLDEEFSLAASDDKLIVTWKDAYFTCKLLSLSFPDFRPLINNTNHDKRFEFNRDELNLALKKVISVTKNSSDSKNVATFNFKGNQLLISGVSANAKINQKVNMIKTGEDLKLGMNCKYIKDFIDNVDKNIIIDATNSSSMLRFMEEGNENYIYLIMPVNIRV | not soluble
MGSDKIHHHHHHMDRVLFLAMTGAKHEAWQQATTANNLANVNTNAFKADLAAYRALPVVGDGAPTRTYVVDNTIGFDASQGSLQHTGNPSDFALGTPGFFAVQGADGQEAYTRDGGYVLDATGLMRTHSGLLIMGDGGPITVPAGSQVQLGSDGSVMAVPQSGANRAPQLVGQIKMVNPGPKDVYKGEDKLFHVNGGGTLPASADVKLVPETLESSNVNSVEALVQMISHGRQYELNIKMMQTSQQNDQQAAQLLSMS | not soluble
ATPALRFVAVGDWGGVPNAPFHTAREMANAKEIARTVQILGADFILSLGDNFYFTGVQDINDKRFQETFEDVFSDRSLRKVPWYVLAGNHDHLGNVSAQIAYSKISKRWNFPSPFYRLHFKIPQTNVSVAIFMLDTVTLCGNSDDFLSQQPERPRDVKLARTQLSWLKKQLAAAREDYVLVAGHYPVWSIAEHGPTHCLVKQLRPLLATYGVTAYLCGHDHNLQYLQDENGVGYVLSGAGNFMDPSKRHQRKVPNGYLRFHYGTEDSLGGFAYVEISSKEMTVTYIEASGKSLFKTRLPRRARP | soluble
MSMQHESPIKRRPSTRIYVGDVPIGDGAPIAVQSMTNTRTTDVAATVAQIKSLEKVGADIVRVSVPTMEAAEAFKLIKQQVSVPLVADIHFDYRIALKVAEYGVDCLRINPGNIGNEARIRSVVDCARDKGIPIRIGVNGGSLEKDLQLKYGEPTPEALVESAMRHVDILDRLNFDQFKVSVKASDVFLAVDSYRLLAKKIDQPLHLGITEAGGARAGSVKSAVGLGMLLAEGIGDTLRISLAADPVEEIKVGFDILKSLRIRSRGINFIACPSCSRQEFDVIGTVNALEQRLEDVLTPMDVSIIGCVVNGPGEAEVSHLGLAGSNKKSAFYEDGVRQKERFDNDDLVAQLEAKIRAKAARLDEKNRIDIKHVEQD | not soluble
MRDMIHNISYRLMVYGTEDEEKVIEALRNVIPGATPERESAEGYHGNPITVLRGRLDRRRALREFMEKFTEVFRGRMDELEDRFDENGNLFLRLDKQKALEGVWEPVRHGDAIHLKIKVEAYPAKREVAVENIRKILE | not soluble
MVMRYSLKQLAVFDAVATTGSVSQAAELLSLTQSATSMSLSQLEKMLGRSLFERHGKRMALTHWGVWLRPKAKKLIHDAQQIELGFYDQHLISGEISLGASQTAAEHLVPNLISNIDNDFPEIRISLGVKNTSGIIEGVLDYKYELGIIEGRCDDSRIHQEVFCTDHLIIVAAAHHPFAKHEKVSLAQLEQAKWVLREHGAGTRTIFDSAIHGKIPDLDVWREYEYVPVLRTLVANGQYLSCLPYLDVVKYIERGELVALNVPELNMERTLSFIWRSSMDQNPISDCIRREGIRMIKNHNVIR | not soluble
FLHAIIPVHRPLRVGVLTQPVHAEISVADPMLAAVDAAASALSQAGHQLVEVQRPYGDAPFAAFSDILALRSAKIHGQASPLVSWLRDRGGRIGGRRKAKAIAEFLSVRAQLLAAWDVD | not soluble
MGSDKIHHHHHHMNIRSRTNNADDLAWVHLIERRKQVELWQFSCLRQSYTLELSPNVMEGVKPEGQLVMVQWSPSNDLQRVKVTLNIHEVTDQAAVNHHFKLVPAGCESIIIDIWGILGLIHDEALRRFYLAVLLNNELMGQFFNARASRSHHHNHACGLLEHSHEVAVTAAMLCWRYNVGPLSVGVAFIGGLLHDIGKIHLFYNADTRDGIAGSHESYNFMVLAEPLELLYRSSPKVFEALSSCLSVKIGRRSEAYIPASMVRLCDNLSMEVCHWRTAFADVPPHHWYAHSAMNDQWYKRLG | not soluble
MARKNAVKDNLEQIQHQSYSELQELLSEANSMLADSAAFAGDKADSARARIGALLEKANDALGKGGSAVAERSRHAVDATESYIGANPWQTVAITTAVGLLAGFLLGRRS | not soluble
GPASQHFLSTSVQGPWERAISPNKVPYYINHETQTTCWDHPKMTELYQSLADLNNVRFSAYRTAMKLRRLQKALCLDLLSLSAACDALDQHNLKQNDQPMDILQIINCLTTIYDRLEQEHNNLVNVPLCVDMCLNWLLNVYDTGRTGRIRVLSFKTGIISLCKAHLEDKYRYLFKQVASSTGFCDQRRLGLLLHDSIQIPRQLGEVASFGGSNIEPSVRSCFQFANNKPEIEAALFLDWMRLEPQSMVWLPVLHRVAAAET | soluble
MAPVKLYMVEVIDKKEIAANERRSRENDVTGPEITHYYQVTFRLTTDDRKDLVLNIDKSSYQNIEPEMKGRLFMQGSRFVQFETDVPIDEQKLEHHHHHH | soluble
MKIALMMENSQASKNAIIYNELSAVANEKGFPVFNVGMCDENDHHLTYIHLGIMASILLNANAVDFVVTGCGTGQGALMSLNIHPGVICGYCIDPADAFLFAQINNGNALSLPFAKGFGWGAELNVRFIFEKAFTGRKGEGYPPERKAPQVRNAGILNQVKAAVVKENYLDTLRAIDPELVKTAVSGPRFQQCLFENGQNKEIEAFVREMLG | not soluble
MATRLLRTNFIRRSYRLPAFSPVGPPTVTASTAVVPEILSFGQQAPEPPLHHPKPTEQSHDGLDLSDQARLFSSIPTSDLLRSTAVLHAAAIGPMVDLGTWVMSSKLMDASVTRGMVLGLVKSTFYDHFCAGEDADAAAERVRSVYEATGLKGMLVYGVEHADDAVSCDDNMQQFIRTIEAAKSLPTSHFSSVVVKITAICPISLLKRVSDLLRWEYKSPNFKLSWKLKSFPVFSESSPLYHTNSEPEPLTAEEERELEAAHGRIQEICRKCQESNVPLLIDAEDTILQPAIDYMAYSSAIMFNADKDRPIVYNTIQAYLRDAGERLHLAVQNAEKENVPMGFKLVRGAYMSSEASLADSLGCKSPVHDTIQDTHSCYNDCMTFLMEKASNGSGFGVVLATHNADSGRLASRKASDLGIDKQNGKIEFAQLYGMSDALSFGLKRAGFNVSKYMPFGPVATAIPYLLRRAYENRGMMATGAHDRQLMRMELKRRLIAGIA | not soluble
MGHHHHHHSHMQNADDFIKFLELEQHVEGGFYRSSYRSETAFDPSRQLWSSIYFLLRTGEVSHFHRLTADEMWYFHAGQSLTIYMISPEGELTTAQLGLDLAAGERPQFLVPKGCIFGSAMNQDGFSLVGCMVSPGFTFDDFELFSQEALLAMYPQHKAVVQKLSRPEVN | soluble
